Measurements reported in paper doi:10.1101/2023.03.21.532770 (bioRxiv, 2023).

Target: the molecule itself
Experiment: crystal structure

B1: mouse 2,4-Dienoyl-CoA reductase 1 (Decr1) (enzyme, UniProt Q9CQ62 35-335, looked up)
chain: SKDAPQSKFFQPVLKPMLPPDAFQGKVAFITGGGTGLGKAMTTFLSTLGAQCVIASRNIDVLKATAEEISSKTGNKVHAIRCDVRDPDMVHNTVLELIKVAGHPDVVINNAAGNFISPSERLTPNGWKTITDIVLNGTAYVTLEIGKQLIKAQKGAAFLAITTIYAESGSGFVMPSSSAKSGVEAMNKSLAAEWGRYGMRFNIIQPGPIKTKGAFSRLDPTGRFEKEMIDRIPCGRLGTMEELANLATFLCSDYASWINGAVIRFDGGEEVFLSGEFNSLKKVTKEEWDIIEGLIRKTKGS
B1 was tested. Which “stoichiometry N” value did it give?
Its value is 4.
